In publication PMC9960064:
One block for each substance: values may come before it.

Key:
Assay in all cases: ITC
[1] = molecular target: untagged β′-COP residues 1–604 (yeast (S. cerevisiae)) (UniProt P41811)
[2] = molecular target: C-terminal β′-COP propeller (residues 300–604), untagged (yeast (S. cerevisiae)) (UniProt P41811)
[3] = molecular target: β′-COP R13A/K15A/R59A (RKR mutant), residues 1–604, untagged (yeast (S. cerevisiae)) (UniProt P41811)

Chain of untagged β′-COP residues 1–604 (yeast (S. cerevisiae)) (P41811 1-604): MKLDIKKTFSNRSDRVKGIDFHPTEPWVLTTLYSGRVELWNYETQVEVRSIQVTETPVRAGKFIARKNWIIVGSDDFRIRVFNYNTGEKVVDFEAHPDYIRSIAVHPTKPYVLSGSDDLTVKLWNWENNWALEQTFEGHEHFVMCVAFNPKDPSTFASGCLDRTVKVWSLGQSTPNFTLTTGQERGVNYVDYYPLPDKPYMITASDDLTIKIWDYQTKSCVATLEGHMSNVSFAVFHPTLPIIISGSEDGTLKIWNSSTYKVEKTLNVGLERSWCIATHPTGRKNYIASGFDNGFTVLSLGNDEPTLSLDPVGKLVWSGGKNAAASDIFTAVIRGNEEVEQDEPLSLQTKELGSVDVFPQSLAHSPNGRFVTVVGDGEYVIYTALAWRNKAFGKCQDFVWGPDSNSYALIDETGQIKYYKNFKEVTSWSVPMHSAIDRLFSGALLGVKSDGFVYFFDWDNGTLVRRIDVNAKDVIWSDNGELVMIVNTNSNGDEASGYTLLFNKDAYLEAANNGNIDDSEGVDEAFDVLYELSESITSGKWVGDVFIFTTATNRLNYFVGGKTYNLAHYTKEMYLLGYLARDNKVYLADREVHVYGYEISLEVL
Chain of untagged Glo3 BoCCS fragment (residues 230–300) (P38682 230-300): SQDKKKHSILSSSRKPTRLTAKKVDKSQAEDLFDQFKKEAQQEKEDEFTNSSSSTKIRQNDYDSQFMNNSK
Chain of untagged Glo3 residues 230–290 (P38682 230-290): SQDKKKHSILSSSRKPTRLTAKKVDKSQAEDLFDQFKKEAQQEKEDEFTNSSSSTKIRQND
Chain of C-terminal β′-COP propeller (residues 300–604), untagged (yeast (S. cerevisiae)) (P41811 300-604): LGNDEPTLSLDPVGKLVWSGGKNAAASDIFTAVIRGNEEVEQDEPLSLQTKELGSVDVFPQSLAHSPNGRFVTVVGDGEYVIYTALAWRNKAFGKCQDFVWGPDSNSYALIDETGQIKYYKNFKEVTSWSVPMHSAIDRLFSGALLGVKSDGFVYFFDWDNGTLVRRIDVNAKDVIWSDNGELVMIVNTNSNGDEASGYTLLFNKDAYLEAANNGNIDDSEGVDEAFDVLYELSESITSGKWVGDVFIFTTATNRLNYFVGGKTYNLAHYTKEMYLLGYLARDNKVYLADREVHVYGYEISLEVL

Kd [1]: > 300 µM
Substance: Glo3 fragment lacking N-terminal residues 230–240, untagged (domain or fragment)

stoichiometry N [1]: 1
Substance: full BoCCS Glo3 fragment (residues 208–383), untagged (from UniProt P38682 208-383) (domain or fragment)

Kd [2]: < 300 µM
Substance: untagged Glo3 BoCCS fragment (residues 230–300) (from UniProt P38682 230-300) (domain or fragment)

fold weaker binding than wild-type β′-COP [3]: 16 fold
Substance: untagged Glo3 residues 230–290 (from UniProt P38682 230-290) (domain or fragment)
